The values that follow come from US20260374739A1, “SMALL MOLECULAR WEIGHT CHEMICAL COMPOUND TO ANTAGONIZE EPH-EPHRIN TETRAMERIZATION AND INHIBIT BIDIRECTIONAL SIGNALING” (THE BOARD OF REGENTS OF THE UNIVERSITY OF TEXAS SYSTEM, priority 2022, published 2026).

In one experiment the target is human EphrinB2. Description: Octet binding kinetics, EphB to immobilized human EphrinB2. The protocol: (§1) Studies were conducted to confirm that A20 chemicals can effectively target the human Eph/Ephrin proteins. Octet system was used to first characterize the biophysical interactions of the human B class Eph and Ephrin proteins, and then was tested to assess how A20 may disrupt the interactions. Since the human and rodent proteins are highly conserved, and essentially identical, with EphB2 sharing 99.5% identity between human and mouse, with only 5 of ~1,000 amino acids different, any species-specific differences were not anticipated. Therefore, commercially available human EphrinB1-Fc (EB1), EphrinB2-Fc (EB2), and EphrinB3-Fc (EB3) ectodomain proteins were sparsely immobilized onto biosensors and then exposed to 50 nM of soluble human EphB1-His, EphB2-His, and EphB4-His ectodomains for 800 sec association and 1,000 sec dissociation steps with a total of nine different interactions analyzed. In the absence of A20 chemical, the immobilized human EphrinB proteins bound to their appropriate human EphB target proteins; with EphrinB1 only bound EphB1 and EphB2, EphrinB2 bound all three EphB1, EphB2, and EphB4, and EphrinB3 only bound EphB1 and EphB2 (FIG. 19A-19B).
(§2) While the binding kinetics described above for the various human EphB-EphrinB interactions are complicated and show clear differences, all are extremely high affinity interactions with KD values in the low nanomolar to picomolar range (Table 2). Octet software allows for detailed biophysical analysis of the sensorgram data and first attempts to fit the information to equations that follow rather standard binding characteristics, most typified by either a classic 1:1 binding type interaction (like formation of a simple receptor-ligand dimer) or something more complex/heterologous involving 2:1 binding type interactions (like Eph-Ephrin dimer and tetramer). Based on the information contained in the sensorgram run under analysis, the Octet software will attempt to draw curves to fit the data to 1:1 and 2:1 binding equations. […] The resulting curve fits are not always perfect, especially for such complex interactions as the Eph/Ephrin system. As such, while the EphB2-EB2 and EphB4-EB2 data fit a 2:1 curve fairly well, the EphB1-EB2 interaction fits neither 1:1 or 2:1 well and the R2 values of this interaction reflects this. The interaction of EB1 with its two target proteins is more divergent. […] The EphB1-EB3 and EphB2-EB3 interactions are like that for EphB1-EB1, clear 1:1 curve fits with a slow gradual on rate of association followed by no off rate in dissociation.
On the technique in general: BLI is a label-free optical method that tracks binding on a fibre tip over time.

The target in a further experiment is human EphrinB3. Description: Octet binding kinetics, EphB to immobilized human EphrinB3. As to conditions: for Kd: 2:1 fit. As to the method:
as §1, §2

The next experiment has as its target human EphrinB1. Briefly: Octet binding kinetics, EphB to immobilized human EphrinB1. The protocol: as §1, §2
[1] abbreviates: 2:1 fit, in parentheses R2 value, read-out: KD2.
Setting [2] is: in parentheses R2 value, read-out: KD.
Setting [3] is: in parentheses R2 value, read-out: KD2.

Where two headings read alike, the source gives them in different places.

B1: EphB2: soluble human EphB2-His ectodomain (protein, UniProt P29323 19-543, looked up)
extracellular domain: VEETLMDSTTATAELGWMVHPPSGWEEVSGYDENMNTIRTYQVCNVFESSQNNWLRTKFIRRRGAHRIHVEMKFSVRDCSSIPSVPGSCKETFNLYYYEADFDSATKTFPNWMENPWVKVDTIAADESFSQVDLGGRVMKINTEVRSFGPVSRSGFYLAFQDYGGCMSLIAVRVFYRKCPRIIQNGAIFQETLSGAESTSLVAARGSCIANAEEVDVPIKLYCNGDGEWLVPIGRCMCKAGFEAVENGTVCRGCPSGTFKANQGDEACTHCPINSRTTSEGATNCVCRNGYYRADLDPLDMPCTTIPSAPQAVISSVNETSLMLEWTPPRDSGGREDLVYNIICKSCGSGRGACTRCGDNVQYAPRQLGLTEPRIYISDLLAHTQYTFEIQAVNGVTDQSPFSPQFASVNITTNQAAPSAVSIMHQVSRTVDSITLSWSQPDQPNGVILDYELQYYEKELSEYNATAIKSPTNTVTVQGLKAGAIYVFQVRARTVAGYGRYSGKMYFQTMTEAEYQTSIQEKLPL
modifications: extracellular domain His tag
notes: soluble human EphB2-His ectodomain
For B1, the Kd came out at 16.8 nM on human EphrinB2 (setting [1]); 5.9 nM at human EphrinB2 (2:1 fit, read-out: KD1); 4.84 nM at human EphrinB2 (setting [2]); 0.0018 nM at human EphrinB3 (setting [3]); 0.0018 nM at human EphrinB3 (read-out: KD1); 40 nM at human EphrinB1 (setting [1]). In addition, the Kd turned out to be 41 nM on human EphrinB1 (2:1 fit, read-out: KD1) and 8.57 nM at human EphrinB1 (setting [2]).

B2: EphB4: soluble human EphB4-His ectodomain (protein, UniProt P54760 16-539, looked up)
extracellular domain: LEETLLNTKLETADLKWVTFPQVDGQWEELSGLDEEQHSVRTYEVCDVQRAPGQAHWLRTGWVPRRGAVHVYATLRFTMLECLSLPRAGRSCKETFTVFYYESDADTATALTPAWMENPYIKVDTVAAEHLTRKRPGAEATGKVNVKTLRLGPLSKAGFYLAFQDQGACMALLSLHLFYKKCAQLTVNLTRFPETVPRELVVPVAGSCVVDAVPAPGPSPSLYCREDGQWAEQPVTGCSCAPGFEAAEGNTKCRACAQGTFKPLSGEGSCQPCPANSHSNTIGSAVCQCRVGYFRARTDPRGAPCTTPPSAPRSVVSRLNGSSLHLEWSAPLESGGREDLTYALRCRECRPGGSCAPCGGDLTFDPGPRDLVEPWVVVRGLRPDFTYTFEVTALNGVSSLATGPVPFEPVNVTTDREVPPAVSDIRVTRSSPSSLSLAWAVPRAPSGAVLDYEVKYHEKGAEGPSSVRFLKTSENRAELRGLKRGASYLVQVRARSEAGYGPFGQEHHSQTQLDESEGWREQLA
modifications: extracellular domain His tag
notes: soluble human EphB4-His ectodomain
Consider B2, for which the Kd was determined as 42 nM at human EphrinB2 (setting [1]); 0.35 nM at human EphrinB2 (2:1 fit, read-out: KD1); 1.8 nM on human EphrinB2 (setting [2]). For the same molecule, the “KD (binding in words)” value on human EphrinB3 and at human EphrinB1 was “no binding” throughout.

B3: EphB1: soluble human EphB1-His ectodomain (protein, UniProt P54762 18-540, looked up)
extracellular domain: MEETLMDTRTATAELGWTANPASGWEEVSGYDENLNTIRTYQVCNVFEPNQNNWLLTTFINRRGAHRIYTEMRFTVRDCSSLPNVPGSCKETFNLYYYETDSVIATKKSAFWSEAPYLKVDTIAADESFSQVDFGGRLMKVNTEVRSFGPLTRNGFYLAFQDYGACMSLLSVRVFFKKCPSIVQNFAVFPETMTGAESTSLVIARGTCIPNAEEVDVPIKLYCNGDGEWMVPIGRCTCKPGYEPENSVACKACPAGTFKASQEAEGCSHCPSNSRSPAEASPICTCRTGYYRADFDPPEVACTSVPSGPRNVISIVNETSIILEWHPPRETGGRDDVTYNIICKKCRADRRSCSRCDDNVEFVPRQLGLTECRVSISSLWAHTPYTFDIQAINGVSSKSPFPPQHVSVNITTNQAAPSTVPIMHQVSATMRSITLSWPQPEQPNGIILDYEIRYYEKEHNEFNSSMARSQTNTARIDGLRPGMVYVVQVRARTVAGYGKFSGKMCFQTLTDDDYKSELREQLP
modifications: extracellular domain His tag
notes: soluble human EphB1-His ectodomain
B3: the Kd at human EphrinB2 (setting [1]) was 27 nM; at human EphrinB2 (2:1 fit, read-out: KD1), under 0.001 nM; at human EphrinB2 (setting [2]), 4.3 nM; on human EphrinB3 (setting [3]), 0.0012 nM; on human EphrinB3 (read-out: KD1), 0.0014 nM.
